In the assay the target is T1, GST-tagged MupFHA (Mup018c, residues 1-362), wild type (M. ulcerans Agy99 (plasmid pMUM001), UniProt Q6MZ86 1-362).
T1 construct: also called MupFHA^wt; GST-MupFHA
T1 sequence: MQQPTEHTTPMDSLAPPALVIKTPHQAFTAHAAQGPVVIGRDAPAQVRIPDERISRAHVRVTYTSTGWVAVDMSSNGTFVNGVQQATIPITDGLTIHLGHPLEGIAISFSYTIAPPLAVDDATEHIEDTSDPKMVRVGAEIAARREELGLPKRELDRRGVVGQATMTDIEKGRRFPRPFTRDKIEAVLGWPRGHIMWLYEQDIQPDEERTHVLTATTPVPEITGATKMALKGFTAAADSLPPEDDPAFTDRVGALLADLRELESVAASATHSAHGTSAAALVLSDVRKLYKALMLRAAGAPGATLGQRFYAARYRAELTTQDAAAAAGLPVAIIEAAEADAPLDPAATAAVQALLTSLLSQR
In words: ELISA. The following applies: both partners purified. For orientation: In an ELISA, binding on a coated surface is turned into a signal by an enzyme label.

B1: MBP-tagged MupDivIVA S43/45/49A triple mutant (natural protein)
chain: MSHSELLDPALPKSPFGKQGYRYDDVDVFLRLIADELQGSDLAEADIHAITFRCAAPLTRGYDTESVDRFLDRIAETIARGHGDEGQ
In the case of B1, the binding result is listed as “binds”.

B2: MBP-tagged MupDivIVA-P (Mup012c residues 1-87, phosphorylated by co-expression with PknQ) (natural protein, M. ulcerans Agy99 (plasmid pMUM001), UniProt Q6MZ92 1-87, looked up)
chain: MSHSELLDPALPKSPFGKQGYRYDDVDVFLRLIADELQGSDLSESDIHSITFRCAAPLTRGYDTESVDRFLDRIAETIARGHGDEGQ
notes: also called phosphorylated MupDivIVA
Turning to B2, the binding result is listed as “binds”.

The values are drawn from PMC4238996 (PLoS Neglected Tropical Diseases, 2014).
